Assays:
chemokine receptor CCR1 = molecular target: T1, chemokine receptor CCR1 (human, UniProt P32246 1-355); experiment: cell-based or functional assay
T1 sequence (looked up): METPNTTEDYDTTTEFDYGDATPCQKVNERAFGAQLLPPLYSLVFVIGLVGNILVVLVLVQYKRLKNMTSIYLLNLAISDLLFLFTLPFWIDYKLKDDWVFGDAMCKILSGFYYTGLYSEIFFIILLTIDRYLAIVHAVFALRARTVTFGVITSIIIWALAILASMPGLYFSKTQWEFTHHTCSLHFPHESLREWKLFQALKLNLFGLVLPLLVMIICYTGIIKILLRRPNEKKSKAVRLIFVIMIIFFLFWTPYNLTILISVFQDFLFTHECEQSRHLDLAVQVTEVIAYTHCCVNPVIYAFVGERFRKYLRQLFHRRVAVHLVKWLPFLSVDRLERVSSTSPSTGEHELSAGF

[1] = molecular target: human chemokine receptor CCR5 (human, UniProt P51681 1-352)
chemokine receptor CCR6 = molecular target: T2, chemokine receptor CCR6 (human, UniProt P51684 1-374); experiment: cell-based or functional assay
T2 sequence (looked up): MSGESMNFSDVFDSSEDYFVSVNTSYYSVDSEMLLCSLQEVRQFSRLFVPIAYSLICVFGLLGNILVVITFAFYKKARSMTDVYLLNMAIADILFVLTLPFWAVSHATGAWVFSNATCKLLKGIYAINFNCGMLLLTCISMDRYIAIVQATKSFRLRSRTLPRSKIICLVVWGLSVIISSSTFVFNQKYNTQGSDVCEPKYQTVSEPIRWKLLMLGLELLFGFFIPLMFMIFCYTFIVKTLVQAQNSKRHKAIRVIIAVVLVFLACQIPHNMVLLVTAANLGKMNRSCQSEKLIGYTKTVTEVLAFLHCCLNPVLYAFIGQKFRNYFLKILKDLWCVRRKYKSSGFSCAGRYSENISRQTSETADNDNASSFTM

chemokine receptor CCR8 = chemokine receptor CCR8 (human, UniProt P51685 1-355); experiment: cell-based or functional assay
chemokine receptor CCR4 = molecular target: T3, chemokine receptor CCR4 (human, UniProt P51679 1-360); experiment: cell-based or functional assay
T3 sequence (looked up): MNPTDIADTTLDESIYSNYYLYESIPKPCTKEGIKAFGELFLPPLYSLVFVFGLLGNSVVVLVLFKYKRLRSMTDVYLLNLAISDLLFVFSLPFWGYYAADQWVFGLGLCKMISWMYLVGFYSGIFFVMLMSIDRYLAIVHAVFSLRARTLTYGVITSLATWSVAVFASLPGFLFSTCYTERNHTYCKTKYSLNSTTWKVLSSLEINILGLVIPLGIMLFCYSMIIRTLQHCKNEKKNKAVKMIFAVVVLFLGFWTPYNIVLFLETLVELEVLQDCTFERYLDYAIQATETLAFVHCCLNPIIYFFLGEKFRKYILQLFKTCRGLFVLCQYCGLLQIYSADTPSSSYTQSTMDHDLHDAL

Chain of human chemokine receptor CCR5 (P51681 whole entry): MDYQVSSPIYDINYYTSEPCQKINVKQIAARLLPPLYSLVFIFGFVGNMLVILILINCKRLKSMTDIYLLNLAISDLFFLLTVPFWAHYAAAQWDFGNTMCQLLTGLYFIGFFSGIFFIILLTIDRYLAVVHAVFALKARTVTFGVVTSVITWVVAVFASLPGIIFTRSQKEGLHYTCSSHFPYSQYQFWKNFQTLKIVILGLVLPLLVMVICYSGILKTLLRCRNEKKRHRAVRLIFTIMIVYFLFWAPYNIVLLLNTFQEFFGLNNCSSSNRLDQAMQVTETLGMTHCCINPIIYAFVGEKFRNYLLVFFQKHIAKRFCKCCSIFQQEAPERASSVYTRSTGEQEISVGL

B1: CCL3/MIP-1alpha (ligand, human, UniProt P10147 27-92, looked up)
chain: ADTPTACCFSYTSRQIPQNFIADYFETSSQCSKPGVIFLTKRSRQVCADPSEEWVQKYVSDLELSA
With B1 the “EC50, calcium mobilisation in CCR1-CHO cells” value (chemokine receptor CCR1) was 2.75 nM.

B2: HHV-6 U83A, native full length mature chemokine (ligand)
chain: FICSSPDAELFSEKSRMSSSVLLGCLLCCMDWSAAVPGKTEPFRKLFDAIMIKKLKSCSAAYPSDLEQGSMCDMADASPTSLELGLSKLDKES
B2 was tested, and the IC50 [1] was 0.11 nM, the “EC50, calcium mobilisation in CCR6-CHO cells” value (chemokine receptor CCR6) was 10.3 nM and the “calcium mobilisation at 10 nM U83A, percent of the response to endogenous ligand” value (chemokine receptor CCR6) was 35%. The “calcium mobilisation at 100 nM U83A, percent of the response to endogenous ligand” value (chemokine receptor CCR6) was 80%, the “minimal effective dose, calcium mobilisation” value (chemokine receptor CCR6) was 7.5 nM and the “EC50, calcium mobilisation in CCR8-CHO cells” value (chemokine receptor CCR8) was 6.42 nM. For the same binder, the “calcium mobilisation at 10 nM U83A, percent of the response to endogenous ligand” value (chemokine receptor CCR8) was 65%, the “calcium mobilisation at 100 nM U83A, percent of the response to endogenous ligand” value (chemokine receptor CCR8) was 85% and the “EC50, calcium mobilisation in CCR1-CHO cells” value (chemokine receptor CCR1) was 9.17 nM. The “calcium mobilisation at 10 nM U83A, percent of the response to endogenous ligand” value (chemokine receptor CCR1) was 60%, the “minimal effective dose, calcium mobilisation” value (chemokine receptor CCR1) was 7.5 nM and the “EC50, calcium mobilisation in CCR4-CHO cells” value (chemokine receptor CCR4) was 8.96 nM. For the same binder, the “calcium mobilisation at 10 nM U83A, percent of the response to endogenous ligand” value (chemokine receptor CCR4) was 50%, the “calcium mobilisation at 100 nM U83A, percent of the response to endogenous ligand” value (chemokine receptor CCR4) was 84% and the “minimal effective dose, calcium mobilisation” value (chemokine receptor CCR4) was 7.5 nM.
